In publication PMC7616460, “Skraban-Deardorff intellectual disability syndrome-associated mutations in WDR26 impair CTLH E3 complex assembly” (FEBS letters, 2024):

Biological target: the molecule itself
Test: cryo-EM structure; focused refinement (Relion v4.0) of the prior map EMD-12545 over the WDR26-YPEL5 region, 6.7 Å; fitted with AlphaFold2 models

B1: WDR26 in the CTLH subcomplex of the cryo-EM map EMD-12545 / EMD-19039 (natural protein, human, UniProt Q9H7D7 1-661, looked up)
chain: MQANGAGGGGGGGGGGGGGGGGGGGQGQTPELACLSAQNGESSPSSSSSAGDLAHANGLLPSAPSAASNNSNSLNVNNGVPGGAAAASSATVAAASATTAASSSLATPELGSSLKKKKRLSQSDEDVIRLIGQHLNGLGLNQTVDLLMQESGCRLEHPSATKFRNHVMEGDWDKAENDLNELKPLVHSPHAIVVRGALEISQTLLGIIVRMKFLLLQQKYLEYLEDGKVLEALQVLRCELTPLKYNTERIHVLSGYLMCSHAEDLRAKAEWEGKGTASRSKLLDKLQTYLPPSVMLPPRRLQTLLRQAVELQRDRCLYHNTKLDNNLDSVSLLIDHVCSRRQFPCYTQQILTEHCNEVWFCKFSNDGTKLATGSKDTTVIIWQVDPDTHLLKLLKTLEGHAYGVSYIAWSPDDNYLVACGPDDCSELWLWNVQTGELRTKMSQSHEDSLTSVAWNPDGKRFVTGGQRGQFYQCDLDGNLLDSWEGVRVQCLWCLSDGKTVLASDTHQRIRGYNFEDLTDRNIVQEDHPIMSFTISKNGRLALLNVATQGVHLWDLQDRVLVRKYQGVTQGFYTIHSCFGGHNEDFIASGSEDHKVYIWHKRSELPIAELTGHTRTVNCVSWNPQIPSMMASASDDGTVRIWGPAPFIDHQNIEEECSSMDS
notes: WDR26, human; the fitted AlphaFold2 model is of isoform 1 (Q9H7D7-1); subcomplex held WDR26, RANBP9, TWA1, ARMC8, GID4 and YPEL5; also called WDR26 dimer
stoichiometry N: 2
